Four molecules from patent EP3583122A1 (dated 2019) can be followed below.

For experiment [1], the target named is T1, EBOV GP on rVSV particles (Ebola virus (EBOV), UniProt Q05320 33-676).
T1 sequence: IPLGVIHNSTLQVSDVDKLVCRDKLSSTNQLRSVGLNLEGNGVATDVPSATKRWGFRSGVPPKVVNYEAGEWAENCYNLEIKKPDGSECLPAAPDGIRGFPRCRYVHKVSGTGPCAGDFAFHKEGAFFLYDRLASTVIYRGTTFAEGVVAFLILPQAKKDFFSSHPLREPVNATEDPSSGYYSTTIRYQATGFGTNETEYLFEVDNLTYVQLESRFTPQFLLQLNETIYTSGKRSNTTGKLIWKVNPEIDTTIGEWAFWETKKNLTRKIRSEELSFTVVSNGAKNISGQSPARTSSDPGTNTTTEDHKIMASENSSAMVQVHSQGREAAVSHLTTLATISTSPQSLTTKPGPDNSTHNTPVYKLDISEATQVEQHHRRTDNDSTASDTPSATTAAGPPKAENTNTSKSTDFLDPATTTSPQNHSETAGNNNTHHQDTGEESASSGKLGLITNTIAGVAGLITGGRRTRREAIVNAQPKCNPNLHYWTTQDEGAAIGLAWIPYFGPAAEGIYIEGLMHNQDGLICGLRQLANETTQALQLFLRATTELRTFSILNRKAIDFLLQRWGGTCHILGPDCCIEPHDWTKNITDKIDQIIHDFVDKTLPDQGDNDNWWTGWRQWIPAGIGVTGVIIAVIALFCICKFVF
Description: cell-based or functional assay.

For experiment [2], the target named is BDBV GP on rVSV particles (Bundibugyo virus (BDBV)). In words: cell-based or functional assay.
For experiment [3], the target named is T2, TAFV GP on VSV pseudotype particles (Tai Forest virus (TAFV), UniProt Q66810 33-676).
T2 sequence: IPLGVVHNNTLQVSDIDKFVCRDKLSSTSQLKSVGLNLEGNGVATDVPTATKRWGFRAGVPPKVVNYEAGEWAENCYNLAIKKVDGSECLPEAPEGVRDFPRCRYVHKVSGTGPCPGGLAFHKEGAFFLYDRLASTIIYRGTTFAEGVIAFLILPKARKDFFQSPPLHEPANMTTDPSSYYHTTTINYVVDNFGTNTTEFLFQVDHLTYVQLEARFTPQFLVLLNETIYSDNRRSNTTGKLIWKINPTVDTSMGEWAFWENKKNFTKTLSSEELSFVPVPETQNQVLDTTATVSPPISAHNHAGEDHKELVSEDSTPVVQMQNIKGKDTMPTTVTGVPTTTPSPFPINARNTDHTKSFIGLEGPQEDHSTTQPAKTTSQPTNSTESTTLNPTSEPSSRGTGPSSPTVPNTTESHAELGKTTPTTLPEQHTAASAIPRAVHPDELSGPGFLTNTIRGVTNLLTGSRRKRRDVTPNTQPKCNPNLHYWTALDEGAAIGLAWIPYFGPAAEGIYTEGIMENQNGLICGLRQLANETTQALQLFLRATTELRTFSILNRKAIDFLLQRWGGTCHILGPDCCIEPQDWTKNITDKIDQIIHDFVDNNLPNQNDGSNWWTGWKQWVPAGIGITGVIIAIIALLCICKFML
In words: cell-based or functional assay.

The target in experiment [4] is T3, SUDV GP on rVSV particles (Sudan virus (SUDV), UniProt Q66814 33-676).
T3 sequence: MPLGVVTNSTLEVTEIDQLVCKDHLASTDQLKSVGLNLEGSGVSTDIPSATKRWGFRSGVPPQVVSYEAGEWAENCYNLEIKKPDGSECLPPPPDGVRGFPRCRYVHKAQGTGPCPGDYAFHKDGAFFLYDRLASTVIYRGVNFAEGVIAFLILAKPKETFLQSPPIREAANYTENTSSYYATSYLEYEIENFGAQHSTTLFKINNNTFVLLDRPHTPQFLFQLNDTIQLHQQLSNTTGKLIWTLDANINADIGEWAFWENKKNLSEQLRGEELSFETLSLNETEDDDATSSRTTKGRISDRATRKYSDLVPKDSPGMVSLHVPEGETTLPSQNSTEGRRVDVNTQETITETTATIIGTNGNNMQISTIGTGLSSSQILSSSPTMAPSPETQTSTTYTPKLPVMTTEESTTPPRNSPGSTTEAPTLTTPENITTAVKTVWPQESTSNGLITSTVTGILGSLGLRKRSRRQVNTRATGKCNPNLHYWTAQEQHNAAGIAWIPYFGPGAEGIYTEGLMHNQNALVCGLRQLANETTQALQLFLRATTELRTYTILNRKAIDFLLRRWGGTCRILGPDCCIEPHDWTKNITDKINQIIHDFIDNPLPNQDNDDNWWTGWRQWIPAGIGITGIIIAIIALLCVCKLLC
Description: cell-based or functional assay.

In experiment [5] the target is T4, RESTV GP on rVSV particles (Reston virus (RESTV), UniProt Q66799 34-677).
T4 sequence: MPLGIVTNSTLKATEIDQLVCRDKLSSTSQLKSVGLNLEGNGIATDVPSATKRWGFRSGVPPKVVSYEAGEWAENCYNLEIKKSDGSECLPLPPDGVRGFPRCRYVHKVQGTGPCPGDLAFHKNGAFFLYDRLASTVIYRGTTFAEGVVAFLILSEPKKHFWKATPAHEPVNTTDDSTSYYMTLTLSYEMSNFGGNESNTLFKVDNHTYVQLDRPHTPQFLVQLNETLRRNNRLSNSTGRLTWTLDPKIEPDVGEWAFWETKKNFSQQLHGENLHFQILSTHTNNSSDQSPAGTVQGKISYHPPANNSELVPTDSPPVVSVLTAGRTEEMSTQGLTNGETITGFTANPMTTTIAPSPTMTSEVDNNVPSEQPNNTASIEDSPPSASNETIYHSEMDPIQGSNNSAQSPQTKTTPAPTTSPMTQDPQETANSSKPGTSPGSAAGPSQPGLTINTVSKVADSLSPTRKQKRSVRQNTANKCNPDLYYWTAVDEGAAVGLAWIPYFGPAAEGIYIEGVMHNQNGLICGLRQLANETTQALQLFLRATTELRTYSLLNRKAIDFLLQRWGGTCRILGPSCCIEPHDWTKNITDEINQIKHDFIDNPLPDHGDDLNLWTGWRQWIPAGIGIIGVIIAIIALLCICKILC
In words: cell-based or functional assay.

In experiment [6] the target is EBOV GPCL (cleaved soluble EBOV GP) (Ebola virus (EBOV), UniProt Q05320 33-650). Description: BLI (OctetRed), IgG on anti-human Fc sensors, GPCL in solution, 1:1 fit.

Where only a bound is given, the exact number is not on record here.

B1: PE-87 F109A (antibody, V domains shown)
VH: QVQLVQSGVTLVQPGGSLRVSCAASGFTFSSYAMSWVRQAPGKGLEWVSAISGLGGSTYYADSVKGRFTISRDNSKNTLYLQMNSLRAEDTAVYYCAKDHRVWAAGYHADYWGQGALVTVSS
VL: DIVLTQSPSTLSASVGDRVTITCRASQSISSWLAWYQQKPGEAPKLLISDASSLESGVPSRFSGSGSGTEFTLTISSLQPDDFATYYCQQYYSSPTFGGGTKVEIK
Consider B1, for which the “IC50, half-maximal neutralization of viral infectivity (rVSV-GP)” value (shortened to “IC50, half-maximal neutralization”) in experiment [1] came out at 4200 pM; in experiment [2], 300 pM; in experiment [3], 2800 pM; in experiment [4] it was 2100 pM; in experiment [5], 400 pM.

B2: PE-87 Y111A (antibody, V domains shown)
VH: QVQLVQSGVTLVQPGGSLRVSCAASGFTFSSYAMSWVRQAPGKGLEWVSAISGLGGSTYYADSVKGRFTISRDNSKNTLYLQMNSLRAEDTAVYYCAKDHRVWAAGYHFDAWGQGALVTVSS
VL: DIVLTQSPSTLSASVGDRVTITCRASQSISSWLAWYQQKPGEAPKLLISDASSLESGVPSRFSGSGSGTEFTLTISSLQPDDFATYYCQQYYSSPTFGGGTKVEIK
With B2, the “IC50, half-maximal neutralization” value in experiment [1] came to 800 pM; in experiment [2], 400 pM; in experiment [3], 1100 pM; in experiment [4] it was 800 pM; in experiment [5], 100 pM.

B3: mAb PE-87 (antibody, V domains shown)
VH: QVQLVQSGVTLVQPGGSLRVSCAASGFTFSSYAMSWVRQAPGKGLEWVSAISGLGGSTYYADSVKGRFTISRDNSKNTLYLQMNSLRAEDTAVYYCAKDHRVWAAGYHFDYWGQGALVTVSS
VL: DIVLTQSPSTLSASVGDRVTITCRASQSISSWLAWYQQKPGEAPKLLISDASSLESGVPSRFSGSGSGTEFTLTISSLQPDDFATYYCQQYYSSPTFGGGTKVEIK
Turning to B3, the dissociation constant (Kd) in experiment [6] is < 1 pM.

B4: PE-87 D110A (antibody, V domains shown)
VH: QVQLVQSGVTLVQPGGSLRVSCAASGFTFSSYAMSWVRQAPGKGLEWVSAISGLGGSTYYADSVKGRFTISRDNSKNTLYLQMNSLRAEDTAVYYCAKDHRVWAAGYHFAYWGQGALVTVSS
VL: DIVLTQSPSTLSASVGDRVTITCRASQSISSWLAWYQQKPGEAPKLLISDASSLESGVPSRFSGSGSGTEFTLTISSLQPDDFATYYCQQYYSSPTFGGGTKVEIK
Take B4: the “IC50, half-maximal neutralization” value in experiment [1] was 2000 pM; in experiment [2], 900 pM; in experiment [3], 2100 pM; in experiment [4], 1500 pM; in experiment [5] it was 400 pM.
